Legend:
[1] = test system: mylein basic protein (MBP)
[2] = test system: poly (Arg, Pro, Thr) 6:3:1
[3] = test system: protein kinase C (PKC) substrate

B1: human checkpoint kinase (hChk1) (enzyme)
chain: MAVPFVEDWDLVQTLGEGAYGEVQLAVNRVTEEAVAVKIVDMKRAVDCPENIKKEICINKMLNHENVVKFYGHRREGNIQYLFLEYCSGGELFDRIEPDIGMPEPDAQRFFHQLMAGVVYLHGIGITHRDIKPENLLLDERDNLKISDFGLATVFRYNNRERLLNKMCGTLPYVAPELLKRREFHAEPVDVWSCGIVLTAMLAGELPWDQPSDSCQEYSDWKEKKTYLNPWKKIDSAPLALLHKILVENPSARITIPDIKKDRWYNKPLKKGAKRPRVTSGGVSESPSGFSKHIQSNLDFSPVNSASSEENVKYSSSQPEPRTGLSLWDTSPSYIDKLVQGISFSQPTCPDHMLLNSQLLGTPGSSQNPWQRLVKRMTRFFTKLDADKSYQCLKETCEKLGYQWKKSCMNQVTISTTDRRNNKLIFKVNLLEMDDKILVDFRLSKGDGLEFKRHFLKIKGKLIDIVSSQKVWLPAT
modifications: possible His tag
B1 was tested, and the “in vitro protein kinase phosphorylation assay ([gamma-33P]ATP incorporation, cpm)” value (cAMP substrate) was “significant activity was also found with ... cAMP substrate”, the “in vitro protein kinase phosphorylation assay ([gamma-33P]ATP incorporation, cpm)” value (calmodulin substrate) was “hChk1 showed the highest phosphorylating activity using a calmodulin substrate or the synthetic peptide substrate, poly (Arg, Ser) 3:1” and the “in vitro protein kinase phosphorylation assay ([gamma-33P]ATP incorporation, cpm)” value (casein) was “significant activity was also found with ... casein”. For the same protein, the “in vitro protein kinase phosphorylation assay ([gamma-33P]ATP incorporation, cpm)” value [1] was “significant activity was also found with mylein basic protein (MBP)”, the “in vitro protein kinase phosphorylation assay ([gamma-33P]ATP incorporation, cpm)” value [2] was “significant activity was also found with ... poly (Arg, Pro, Thr) 6:3:1” and the “in vitro protein kinase phosphorylation assay ([gamma-33P]ATP incorporation, cpm)” value (poly (Arg, Ser) 3:1) was “hChk1 showed the highest phosphorylating activity using a calmodulin substrate or the synthetic peptide substrate, poly (Arg, Ser) 3:1”. The “in vitro protein kinase phosphorylation assay ([gamma-33P]ATP incorporation, cpm)” value [3] was “significant activity was also found with ... protein kinase C (PKC) substrate”.
